Test results from US5871948A.

Substrate: NC(=O)c1ccc[n+]([C@@H]2O[C@H](COP(=O)(O)OP(=O)(O)OC[C@H]3O[C@@H](n4cnc5c(N)ncnc54)[C@H](OP(=O)(O)O)[C@@H]3O)[C@@H](O)[C@H]2O)c1
Assay: purified protein, by the assay type

B1: thermostable isocitrate dehydrogenase (iCDH) purified from Sulfolobus acidocaldarius DSM 639, FERM BP-5567 (Sulfolobus acidocaldarius DSM 639) (protein)
chain: MVMLYKEPQDGEPIKFEKGKWVVPNKPIILYIEGDGIGPEITNSAIRVVNKAVEKAYKSSREIKWLEVYAGEKANKITGDRFPKETQDMLLKYRVVLKGPLETPIGKGWKSINVAIRLMLDLYANIRPVKYIEGLESPLKHPEKVDMIIFRENTDDLYRGIEFPYDSEEAKKIRKFLREELKVDIEDDTGIGLKVMSKFKTQRITRLALNYALQNSRKKVTVMHKGNVMKYTEGSFREWAYEVALNEYRDKIVTEEEINRGVNSEGKVILNDRIADNMLQQIIIRPDEYDIILAPNVNGDYISDAAGALIGNIGMLGGANIGDTGGMFEAIHGTAPKYAGKNVANPTGIIKSCELMLYFMGWSEAARLIEKAINESIKQKKVTQDIARYLGITPLGTKEYTDTLVQIMDSF
Km (other: pH 8.6, 37° C., pH 8.6): 66 µM | Km (other: pH 9.5, 37° C., pH 9.5): 42 µM | Km (other: pH 10.0, 37° C., pH 10.0): 48 µM
